Laboratory results taken from IntAct's records for PubMed 29892012.

B1: Pre-B-cell leukemia transcription factor 4 (Homo sapiens), Q9BYU1 (parent)
chain: MAAPPRPAPSPPAPRRLDTSDVLQQIMAITDQSLDEAQARKHALNCHRMKPALFSVLCEIKEKTVVSIRGIQDEDPPDAQLLRLDNMLLAEGVCRPEKRGRGGAVARAGTATPGGCPNDNSIEHSDYRAKLSQIRQIYHSELEKYEQACREFTTHVTNLLQEQSRMRPVSPKEIERMVGAIHGKFSAIQMQLKQSTCEAVMTLRSRLLDARRKRRNFSKQATEVLNEYFYSHLNNPYPSEEAKEELARKGGLTISQVSNWFGNKRIRYKKNMGKFQEEATIYTGKTAVDTTEVGVPGNHASCLSTPSSGSSGPFPLPSAGDAFLTLRTLASLQPPPGGGCLQSQAQGSWQGATPQPATASPAGDPGSINSSTSN
partner: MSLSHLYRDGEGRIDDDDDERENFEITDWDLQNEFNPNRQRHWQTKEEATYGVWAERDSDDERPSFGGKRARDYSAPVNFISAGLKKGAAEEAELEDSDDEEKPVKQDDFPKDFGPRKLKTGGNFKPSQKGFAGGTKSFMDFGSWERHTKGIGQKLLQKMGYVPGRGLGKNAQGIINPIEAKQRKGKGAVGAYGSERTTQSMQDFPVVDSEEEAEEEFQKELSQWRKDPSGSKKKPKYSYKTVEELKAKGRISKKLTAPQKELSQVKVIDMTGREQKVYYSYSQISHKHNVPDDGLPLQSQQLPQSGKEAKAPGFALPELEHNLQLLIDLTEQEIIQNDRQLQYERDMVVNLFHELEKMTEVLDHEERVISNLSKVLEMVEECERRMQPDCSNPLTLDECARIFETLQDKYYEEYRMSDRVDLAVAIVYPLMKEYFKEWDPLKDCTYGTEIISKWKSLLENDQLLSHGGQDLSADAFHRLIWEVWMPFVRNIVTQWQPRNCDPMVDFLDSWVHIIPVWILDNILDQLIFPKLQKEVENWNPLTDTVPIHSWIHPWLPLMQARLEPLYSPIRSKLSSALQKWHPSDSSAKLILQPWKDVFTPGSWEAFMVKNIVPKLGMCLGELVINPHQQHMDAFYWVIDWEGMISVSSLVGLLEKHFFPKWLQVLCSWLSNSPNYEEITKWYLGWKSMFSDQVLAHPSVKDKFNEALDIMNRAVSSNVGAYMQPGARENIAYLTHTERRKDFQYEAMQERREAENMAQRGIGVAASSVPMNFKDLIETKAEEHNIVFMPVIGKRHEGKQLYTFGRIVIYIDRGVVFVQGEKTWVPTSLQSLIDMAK
B2: Casein kinase II subunit alpha (Homo sapiens), P68400 (parent)
chain: MSGPVPSRARVYTDVNTHRPREYWDYESHVVEWGNQDDYQLVRKLGRGKYSEVFEAINITNNEKVVVKILKPVKKKKIKREIKILENLRGGPNIITLADIVKDPVSRTPALVFEHVNNTDFKQLYQTLTDYDIRFYMYEILKALDYCHSMGIMHRDVKPHNVMIDHEHRKLRLIDWGLAEFYHPGQEYNVRVASRYFKGPELLVDYQMYDYSLDMWSLGCMLASMIFRKEPFFHGHDNYDQLVRIAKVLGTEDLYDYIDKYNIELDPRFNDILGRHSRKRWERFVHSENQHLVSPEALDFLDKLLRYDHQSRLTAREAMEHPYFYTVVKDQARMGSSSMPGGSTPVSSANMMSGISSVPTPSPLGPLAGSPVIAAANPLGMPVPAAAGAQQ
B3: Casein kinase II subunit alpha (Homo sapiens), P68400 (parent)
chain: B2 chain
partner: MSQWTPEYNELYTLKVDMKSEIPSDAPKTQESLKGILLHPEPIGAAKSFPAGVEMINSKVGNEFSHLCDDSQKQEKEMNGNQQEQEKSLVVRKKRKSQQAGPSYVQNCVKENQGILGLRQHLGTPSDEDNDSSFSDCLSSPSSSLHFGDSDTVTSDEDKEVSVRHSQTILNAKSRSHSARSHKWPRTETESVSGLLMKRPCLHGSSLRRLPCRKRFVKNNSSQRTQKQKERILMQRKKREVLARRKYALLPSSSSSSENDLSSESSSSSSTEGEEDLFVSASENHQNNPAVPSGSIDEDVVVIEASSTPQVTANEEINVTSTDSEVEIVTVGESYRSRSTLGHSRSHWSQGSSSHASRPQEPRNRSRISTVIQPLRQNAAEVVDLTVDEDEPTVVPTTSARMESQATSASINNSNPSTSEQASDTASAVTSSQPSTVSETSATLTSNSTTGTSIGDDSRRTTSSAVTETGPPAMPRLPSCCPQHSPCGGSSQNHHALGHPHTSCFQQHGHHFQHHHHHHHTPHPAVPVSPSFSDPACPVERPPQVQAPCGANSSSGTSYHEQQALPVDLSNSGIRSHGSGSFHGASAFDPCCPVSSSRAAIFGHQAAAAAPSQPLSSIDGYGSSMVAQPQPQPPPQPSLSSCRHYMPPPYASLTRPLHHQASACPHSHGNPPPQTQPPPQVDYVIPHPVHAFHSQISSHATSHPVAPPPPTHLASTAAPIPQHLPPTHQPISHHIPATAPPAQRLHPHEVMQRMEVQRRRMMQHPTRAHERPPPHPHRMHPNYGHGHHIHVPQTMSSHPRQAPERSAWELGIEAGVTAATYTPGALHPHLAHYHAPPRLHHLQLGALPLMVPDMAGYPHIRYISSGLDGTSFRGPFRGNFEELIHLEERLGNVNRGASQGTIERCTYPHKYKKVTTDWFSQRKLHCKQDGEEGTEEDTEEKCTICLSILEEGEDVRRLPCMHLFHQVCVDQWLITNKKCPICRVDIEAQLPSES
B4: Pre-B-cell leukemia transcription factor 4 (Homo sapiens), Q9BYU1 (parent)
chain: B1 chain
partner: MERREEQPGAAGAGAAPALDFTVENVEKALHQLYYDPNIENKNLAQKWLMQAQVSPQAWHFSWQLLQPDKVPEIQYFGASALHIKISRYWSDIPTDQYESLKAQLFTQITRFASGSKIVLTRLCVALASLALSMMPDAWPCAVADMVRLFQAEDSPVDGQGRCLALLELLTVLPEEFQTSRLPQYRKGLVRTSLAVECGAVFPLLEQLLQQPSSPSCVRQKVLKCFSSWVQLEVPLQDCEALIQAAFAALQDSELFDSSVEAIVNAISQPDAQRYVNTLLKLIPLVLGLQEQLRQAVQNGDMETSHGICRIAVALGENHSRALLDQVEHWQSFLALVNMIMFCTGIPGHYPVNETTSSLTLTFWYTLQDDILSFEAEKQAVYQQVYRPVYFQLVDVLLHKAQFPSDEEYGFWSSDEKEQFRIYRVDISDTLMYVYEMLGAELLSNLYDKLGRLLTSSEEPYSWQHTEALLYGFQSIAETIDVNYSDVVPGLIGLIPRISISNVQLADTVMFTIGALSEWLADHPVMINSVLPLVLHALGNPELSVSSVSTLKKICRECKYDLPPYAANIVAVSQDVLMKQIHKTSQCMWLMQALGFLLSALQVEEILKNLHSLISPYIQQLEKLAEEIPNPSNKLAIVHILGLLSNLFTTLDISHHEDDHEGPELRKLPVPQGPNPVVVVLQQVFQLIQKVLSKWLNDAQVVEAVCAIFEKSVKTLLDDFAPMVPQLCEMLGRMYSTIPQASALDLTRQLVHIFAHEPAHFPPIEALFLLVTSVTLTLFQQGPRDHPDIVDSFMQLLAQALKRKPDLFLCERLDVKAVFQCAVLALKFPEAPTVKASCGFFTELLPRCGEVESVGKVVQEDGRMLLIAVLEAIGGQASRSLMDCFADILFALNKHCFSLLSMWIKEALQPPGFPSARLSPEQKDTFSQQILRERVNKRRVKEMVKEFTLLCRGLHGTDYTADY
B5: Keratin, type I cuticular Ha8 (Homo sapiens), O76015 (parent)
chain: MTSSYSSSSCPLGCTMAPGARNVSVSPIDIGCQPGAEANIAPMCLLANVAHANRVRVGSTPLGRPSLCLPPTCHTACPLPGTCHIPGNIGICGAYGENTLNGHEKETMQFLNDRLANYLEKVRQLEQENAELEATLLERSKCHESTVCPDYQSYFHTIEELQQKILCSKAENARLIVQIDNAKLAADDFRIKLESERSLRQLVEADKCGTQKLLDDATLAKADLEAQQESLKEEQLSLKSNHEQEVKILRSQLGEKLRIELDIEPTIDLNRVLGEMRAQYEAMLETNRQDVEQWFQAQSEGISLQDMSCSEELQCCQSEILELRCTVNALEVERQAQHTLKDCLQNSLCEAEDRFGTELAQMQSLISNVEEQLSEIRADLERQNQEYQVLLDVKTRLENEIATYRNLLESEDCKLPCNPCSTSPSCVTAPCAPRPSCGPCTTCGPTCGASTTGSRF
partner: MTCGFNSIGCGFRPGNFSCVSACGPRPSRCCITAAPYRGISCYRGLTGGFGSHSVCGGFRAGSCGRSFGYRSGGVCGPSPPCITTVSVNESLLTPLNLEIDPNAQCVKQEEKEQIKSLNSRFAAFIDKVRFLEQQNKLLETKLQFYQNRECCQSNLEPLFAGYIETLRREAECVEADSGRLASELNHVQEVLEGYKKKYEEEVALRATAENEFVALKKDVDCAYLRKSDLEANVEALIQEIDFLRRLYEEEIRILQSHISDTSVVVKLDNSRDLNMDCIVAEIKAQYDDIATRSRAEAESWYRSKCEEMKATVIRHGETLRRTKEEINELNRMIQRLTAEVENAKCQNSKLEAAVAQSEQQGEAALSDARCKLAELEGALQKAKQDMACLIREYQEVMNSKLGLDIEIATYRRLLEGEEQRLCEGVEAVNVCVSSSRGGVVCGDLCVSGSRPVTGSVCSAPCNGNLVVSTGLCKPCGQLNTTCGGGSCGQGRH
B6: Keratin, type I cuticular Ha8 (Homo sapiens), O76015 (parent)
chain: B5 chain
partner: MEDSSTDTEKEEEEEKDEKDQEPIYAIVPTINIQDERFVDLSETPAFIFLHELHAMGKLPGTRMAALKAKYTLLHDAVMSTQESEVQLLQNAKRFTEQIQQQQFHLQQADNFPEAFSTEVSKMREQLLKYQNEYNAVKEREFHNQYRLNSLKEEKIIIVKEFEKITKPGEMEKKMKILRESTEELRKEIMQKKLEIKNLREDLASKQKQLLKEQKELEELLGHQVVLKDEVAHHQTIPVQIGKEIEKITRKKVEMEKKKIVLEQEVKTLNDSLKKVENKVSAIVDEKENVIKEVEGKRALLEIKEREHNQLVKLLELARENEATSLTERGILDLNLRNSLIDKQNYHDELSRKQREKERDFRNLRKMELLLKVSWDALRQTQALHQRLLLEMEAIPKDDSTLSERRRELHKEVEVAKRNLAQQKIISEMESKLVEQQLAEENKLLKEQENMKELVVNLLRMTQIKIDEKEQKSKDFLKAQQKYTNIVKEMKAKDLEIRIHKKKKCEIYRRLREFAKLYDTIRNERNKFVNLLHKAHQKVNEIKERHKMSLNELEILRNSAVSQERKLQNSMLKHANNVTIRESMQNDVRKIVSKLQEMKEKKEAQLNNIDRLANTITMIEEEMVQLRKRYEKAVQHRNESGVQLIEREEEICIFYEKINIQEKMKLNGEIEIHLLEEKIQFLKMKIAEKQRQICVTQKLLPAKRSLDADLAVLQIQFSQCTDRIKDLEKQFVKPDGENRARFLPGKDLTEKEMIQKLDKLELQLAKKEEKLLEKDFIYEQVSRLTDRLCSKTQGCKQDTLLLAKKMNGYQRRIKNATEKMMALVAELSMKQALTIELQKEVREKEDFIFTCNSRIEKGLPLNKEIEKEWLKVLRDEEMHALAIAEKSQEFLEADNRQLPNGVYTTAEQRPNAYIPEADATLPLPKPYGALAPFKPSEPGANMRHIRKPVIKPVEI

Variants of: B1
Conditions: with tfp11_human TFIP11, Q9UBB9

Row | effect of a mutation on the interaction | Variant
1 | with no effect | A247T

Variants of: B2
Conditions: with nfya_human NFYA

Row | effect of a mutation on the interaction | Variant
2 | with no effect | K198R

Variants of: B3
Conditions: with rn111_human RNF111, Q6ZNA4

Row | effect of a mutation on the interaction | Variant
3 | with no effect | K198R

Variants of: B4
Conditions: with ipo13_human IPO13, O94829

Row | effect of a mutation on the interaction | Variant
4 | disrupting interaction strength | A247T

Variants of: B5
Conditions: with krt83_human KRT83, P78385

Row | effect of a mutation on the interaction | Variant
5 | with no effect | D306A

Variants of: B5
Conditions: with krt83_human KRT83, P78385
Remark: another data set of the same source

Row | effect of a mutation on the interaction | Variant
6 | with no effect | N270K

Variants of: B6
Conditions: with cc146_human CCDC146, Q8IYE0

Row | effect of a mutation on the interaction | Variant
7 | with no effect | D306A

Variants of: B6
Conditions: with cc146_human CCDC146, Q8IYE0
Remark: another data set of the same source

Row | effect of a mutation on the interaction | Variant
8 | with no effect | N270K
